Results reported in the nanobody polyreactivity screen of Harvey et al. (2022).

Assay: yeast display, Sf9 membrane polyspecificity reagent, FACS + sequencing; frameworks hold sequencing errors
Method in brief: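 Galactose induction of a Saccharomyces cerevisiae BJ5465 synthetic nanobody display library ran 36–48 hours. The cells were then stained for 1 hour at 4 °C with 10% biotinylated, detergent-solubilized Sf9 membrane reagent, pulled down on streptavidin microbeads and FACS-sorted into low and high (top ~1%) gates on expression and reagent-binding fluorescence. Labels for polyreactivity follow the gate of origin.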

Sequence | polyreactivity (PSR sort gate)
QVQLVESGGGLVQAGGSLRLSCAASGRTLISYAMGWYRQAPGKERELVAAISWGGSSTYYADSVKGRFTISGDNAKNTVYLQMNSLKPEDTAVYYCAAVSYRGRGLSRYVAYGYKYDYWGQGTQVTVSS | high polyreactivity
QVQLVESGGGLVQAGGSLRLSCAASGRIFVANAMGWYRPAPGKERELVAAISGRGSRTYYADSVKGRFTISRDNAKNTVYLQMNSLKPEDTAVYYCAVRKNRQYTGDYWGQGTQVTVSS | high polyreactivity
QVQLVESGGGLVQAGGSLRLTCAASGRIFGRYAMGWYRQAPAKERELVATITYSGGTTYYADSVKGRFTISRDNAKNTVYLQMNSLKPEDTAVYYCNARSGRQLARYGYWGQGTQVTVSS | high polyreactivity
QVQLVESGGGLVQAGGSLRLICAASGSISYINAMGWYRQATGKERELDARIRSGDPTNYADSVKGRFTISRDNAKNTVYLQMNSLKPEDTAVYYCARRVTGTLYYTGYDYWGQGTQVTVSS | high polyreactivity
QVQLVESGGGLVQAGGSLRLSCAASGSTFFTYTMGWYRQAPGKERELVARITSSGGSTYYADSVKGRFTISRDNAKNTVYLQMNSLKPEDTAVYYCNARYYSHPTYDYWGQGTQVTVSS | high polyreactivity
QVQLVESGGGLVQAGGSLRLSFAASGRIFGYYAMGWYRQAPGKERELVAAITTSDGSTYYADSVKGRFTISRDNAKNTVYLQMNSLKPEDTAVYYCNARRWGYQWRGDYWGQGTQVTVSS | high polyreactivity
QVQLVESGGGLVQAGGSLRLSCAASGSTFRRYAMGWYRQAPGKERELVATISSGGRTNYADSVKGRFTISRDNAKNTVYLQMNSLKPEDTAVYYCAARPYYYERSAGYYWGQGTQVTVSS | high polyreactivity
QVQLVESGGGLVQAGGSLRLSGAASGSIFSHYAMGWYRQAPGKAWELVASISTADSTNYADSVKGRFTISRDNAKNTVYFQMYSLKPEDTAVYYCAAEYQSYAQYAWGYDYCGQGTQVTVSS | low polyreactivity
QVQLVESGGGLVQAGGSLRLSSAASGRIFKDNAMGWYRQAPGKERELVAAISSGASTSYADSVKGRFTISRDNAKNTVYLQMNSLKPEDTAVYYCNRGGYLYYPGWLFDYWGQGTQVTVSS | low polyreactivity
QVQIVDSGGGLVQAGGSLRLSCAASGNIFAWYAMGWYTQAPGQVRELVAAINWSRGSTYYADSVKGRFTISRDNAKNTVYLQMNSLKPEDTAVYYCNAVFQDRTDDYDYWGQGTQVTLSS | low polyreactivity
QVQLVESGGGLVQAGGSLRLSCAASGRIFSKYAMGWYRQAPGKERELVASIRWRGDRTYYADSVKGRFTISRDNAKNTVDLQMNSLIPEDTAVYYCAADEPGYGVGYWTYPVVPYDYWGQGTQVTVSS | low polyreactivity
QVQLVESWGGLVQAGGSLRISCAASGFIIDGNAMGWYRQAPGKERELLAAISGDGGSYYADSVKGRFTISRDNAKNSVYLQRNSLKPEDTAVYDCAAEQTQLYSFGWDEYWGQGTQVTVSS | low polyreactivity
QVQLVESGGGLVQAGGSLRLSCAASGLIFSSYAMGWYRQAPGKEREFVAAINYNGGRTYYADSVKGRFTISRDNAKNTVYLQMNSLKPEDTAVYYCDGRYGSGGDYWGQGTQVTVSS | low polyreactivity
QVQLVESGGGLVQAGGSLRLSCAASGPIFKRNAMGWYRQAPGKERELVAAISGSGGRTYYADSVKGRFTISRDNAKYTVYLQMNSLKREDTAVYYCNAGGSYYARGMDYWGQGTQVTVSS | high polyreactivity
QVQLVESGGGLVQAGGSLRLSCAASGRTFKYNAMGWYRQAPGKERELVAAISDRGTRKYYADSVKGRFTISRDNAKNSVYLQMNSLKPEDTAVYYCAARVTGKDRWYIYYWGQGTQVTVSS | high polyreactivity
QVQLVESGGGLVQAGGSLRLSCAASGFTFSYYAMGWYRQAPGKERELVASISRSGNTYYADSVKGRFTISRDNAKNTVYLQMNSLKPEDTAVYYCAADQVYASTHVWGYDYWGQGTQVTVSS | high polyreactivity
QVQPVESGGGLVQAGGSLRLSCAASGIIFPYYAMGWYRQEPGKERELVAAISTGGSTYYADSVKGRFTISRDNAKNTVYLQMNSLKPEDTAVYCCAAATSYGKSEYDYWGQGTQVTVSS | high polyreactivity
QVQLVESGGGLVQAGGSLRLSCAASGFTFGYYGMGWYRQAPGKERELVAAISWSGGSTYYADSVKGRFTISRDNEKNTVYLQMNSLKPEDTAVYYCNADYAGFYQRRYIEDDYWGQGTQVTVSS | low polyreactivity
QVQLVESGGGLVQAGGSLRLSCAASGSTFARNAMGWYRQAPGKERELVAAISSGGTTNYADSVKGRFTISRDNAKNTVYLQMNSLKPEDTAVYYCNAGFRNVLTSGYLYDYWGQGTQVTVSS | low polyreactivity
QVELVESAGGLVQAGGSLRLSCAASGRIFAYNAMGWYRQAPGKERELVAAISQSGGSTYYADSVKGRFTISRANAKNTVYLQLNSLKPEDTAVYYCHAVYGRQYRGYNYKYYYWGQGTQVTVSS | high polyreactivity
QVQLVESGGGLVQAGGSLRLSFAASGFIFDYYAMGGYRQEPGKDRELVAAISSSGRTSYADSVKGRFTISRDNAKNTVYLQMNSLKPEDTAVYYCNATWRWTRRGYDYWGQGTQVTVSS | low polyreactivity
QVQLVESGRGLDQAGGSLRLSCAASASTFAWYDMGCYRHAPGKEREFVAAIDYGGGSTYADSVKGRFTISRDNAKNTVYLQMNSLKPEDTAVYYCNADNWVYLYDYWGQGTQVTVSS | low polyreactivity

Sequence | polyreactivity (PSR sort gate)
QVQLVESGGGLVQAGGSLRLSCAASGRTFYRYTMGWYRQAPGKERQLVAGISWRGGTTYYADSVKGRFTISRDNAKNTVYLQMNSLKPEDTAVYYCAAKAGYRYGSLAYYKYDYWGLGTQVTVSS | high polyreactivity
QVQLVESGGGLVQAGGSLRLSCAASGIILPVYAMGWYRQAPGKERELVAAIRWSSGRTYYADSVKGRFTISRDNAKNTVYLQMNSLKPEDTAVYYCNAALYHDSEYNYWGQGTQVTVSS | high polyreactivity
QVQLVESGGGLVQAGGSLRLSCAASGSIFDDYAMGWYRQAPGKERELVAAITSGGSTYYADSVKGRFTISRDNAKNTVYLQMNSLKPEDTAVYYCAAPENKSDEYDYWGQGTQVTVSS | low polyreactivity
QVQLVESGGGLVQAGGSLRLSCVASGRIFYNYAMGWYRQAPGNERELVAAISSSGGRTYYADSVKGRFTISRDNAKNTVYLQMNSLKPEDTAVYYCAADFHDASRPYGSWGQGTQVTVSS | low polyreactivity
QVQLVETGGGLVQAGGSLRISCAASGFTISFYAMAWYRHAPGKERELVAAISSGGRTSYADSVKGRFTISRDNAKNTVYLQMNSLTPEATAVYYCAATNRWYYRAAAAVYAFGYWGHGTQVTVSS | high polyreactivity
QVQLVESGGGLVQAGGSLRLSCAASGFTFNFYAMGWYRQAPGKERELVASITSSGARTYYADSVKGRFTISRDNAKNSVYLQMNSLKPEDTAVYYCAARVYRYSASRAYDYWGQGTQVTVSS | high polyreactivity
QVQLVESGGGLVQAGGSLRLSCAASGSTFDINAMGWYRQAPGKERELFASITFSGGSTYYADSVKGRITISRDYEKNNVYLQMNSLKPEDTAVYYCAADSSGEYPGGYWGQGTQVTVSS | low polyreactivity
QVQLVESGGGLVQAGGSLRLSCAATVSTFWNYAMGWYRQAPGKERELVAAITRGSSTNYADSVKGRFRISRDNAKNTVYLQMNSLKPEVTAVYYCAKRVGRWSAFYYWGQGTQVTVSS | high polyreactivity
QVQLVESGGGLVQAGGSLRLSCAASGTFYYYAMGWYRQAPGKERELVAAISNGDSTTYADSVKGRFTISRDNAKNTVYLQMTSLKPEDTAVYYCAAYRYTPRTSRGYYYWGQGTQVTVSS | low polyreactivity
QVQLVESGGGLVQAGGSLRLSCAASGSIFQGNAMGWYRQAPGKERDLVAAISGGDSTNYADSVKGRFTISRDNAKNNVYLQMNSLKPEDTAVFYCNALSHWAPASYEYDYWGQGTQVTVSS | low polyreactivity
QVQLVESGGGLVQAGGSLRLSCAASGSIFSFYAMGWYRQAPGKERELVASITRRGGSTSYADSVKGRFTISRDNAKNTVYLQMNSLKPEDTAVYYCATESKFISVQRVGYYYVKFDYWGQGTQVTVSS | high polyreactivity
QVQLVESGGGLVQAGGSLRLSCAASGNIFVWNDMGWYRQAPGKERELVAAISLSGSSTYYADSVKGRFTISRDNAKNTVYLQMNSLKPEDTAVYYCATTRRVPGEYWGQGTQVTVSS | high polyreactivity
QVQLVESGGGLVQAGGSLRLSCAASGIIFQRNDMGWYRQAHGKERELVANIRDGGITYADSVKGRFTISRDNAKNTVYLKMNSLKPEDTAVYYCARDDTSPGYGDQSSNASNYYWGQGTQVTVSS | low polyreactivity
QVHLVESGGGLVQAGGSLRLSCAASGSIIKYYAIGWYRQAPGKERELVAAISWRGGRTYADSVKGRFTISRDNAKNTVYIQMNSLKPEDTAVYYCATSSRYRYWHRYDYWGQGTQVTVSS | high polyreactivity
QVQLVEAGGGLVQAGGSLRLSCAASGYTFGPNAMGWYRQAPGKEREFVAAISWSGTSTYYADYVKGRFTISRDNAKNTDYLQMNSLKPEDTAVYYCAARSYRYVSRREYWGQGTLVTVSS | high polyreactivity
QVQLVESGGGLVQAGGRLSLSCAASGSIFEKNAIGWYIQAPGKERELFAAISSSGGRTNYADSVKGRYTISRDNAKITVYFQMNSLKPEDTAVYYCAAYRRGHRYPGYEYWGQGTQVTVSS | high polyreactivity
QVQLVESGGGLVQAGGSLRLSSAASGYILPFYAMGWYRQAPGKERELVASISSSSGRTNYADSVKGRFRISRDYAKNTVFFEMNSLKREVTEVYYCAAAFLSYVSTQYHYDYWGQGTQVSVSS | low polyreactivity
QVQLVESGGGLVQAGGSLRLSCAASGRTFSRYVMGWYRQAPGKERELVAAISRTGGRTYYADSVKGRFTISRDNAKNTVYLQMNSLKPEDTAVYYCNAGTVLISTYDYWGQGTQVTVSS | high polyreactivity
QVQLVESGAGLVQAGGSLRLSCAASGRIFQYNAMGWYRQAPGKERELVAAISYSTTRTYYAESVKSRFTISRDNAKITVYLQMKSLKPEVSGVYYCAARGYFWSSYKYDYWGLGTQVTVSS | high polyreactivity
QGQLVESGGGLVQAGGSLRLSCAASGSIFRGYAMGWYRQAPGKERELVAAISWSGGSTYYADSVKGRFTISRDNAKNTVYLQMNSLKPEDTAVYYCAADRDVFGYWYYYWGQGTQVTVSS | high polyreactivity
QVQLVESGGGLVQAGGSLRLSCAASGSILTVYAMGWYRQAPGKERELVARIRSGDRTYYADSVKGRFTISRDNAKNSVYLQMNSLKPEDTAVYYFAAGSQLRYYHTNWDSFNYWGQGTQVTVSS | low polyreactivity
